B1: 2F5 CDRH3 length-altered variant r2 (antibody, V domains shown)
VH: RITLKESGPPLVKPTQTLTLTCSFSGFSLSDFGVGVGWIRQPPGKALEWLAIIYSDDDKRYSPSLNTRLTITKDTSKNQVVLVMTRVSPVDTATYFCAHRRGPTLFGVIARGPVNAMDVWGQGITVTISS
VL: ALQLTQSPSSLSASVGDRITITCRASQGVTSALAWYRQKPGSPPQLLIYDASSLESGVPSRFSGSGSGTEFTLTISTLRPEDFATYYCQQLHFYPHTFGGGTRVDVR
B2: 2F5 CDRH3 length-altered variant r4 (antibody, V domains shown)
VH: RITLKESGPPLVKPTQTLTLTCSFSGFSLSDFGVGVGWIRQPPGKALEWLAIIYSDDDKRYSPSLNTRLTITKDTSKNQVVLVMTRVSPVDTATYFCAHRRGPLFGVARGPVNAMDVWGQGITVTISS
VL: B1 VL
B3: 2F5 CDRH3 length-altered variant e2 (antibody, V domains shown)
VH: RITLKESGPPLVKPTQTLTLTCSFSGFSLSDFGVGVGWIRQPPGKALEWLAIIYSDDDKRYSPSLNTRLTITKDTSKNQVVLVMTRVSPVDTATYFCAHRRGPTTGLFGVGPIARGPVNAMDVWGQGITVTISS
VL: B1 VL
B4: 2F5 CDRH3 length-altered variant e4 (antibody, V domains shown)
VH: RITLKESGPPLVKPTQTLTLTCSFSGFSLSDFGVGVGWIRQPPGKALEWLAIIYSDDDKRYSPSLNTRLTITKDTSKNQVVLVMTRVSPVDTATYFCAHRRGPTTGGLFGVGGPIARGPVNAMDVWGQGITVTISS
VL: B1 VL
B5: 2F5 CDRH3 length-altered variant r6 (antibody, V domains shown)
VH: RITLKESGPPLVKPTQTLTLTCSFSGFSLSDFGVGVGWIRQPPGKALEWLAIIYSDDDKRYSPSLNTRLTITKDTSKNQVVLVMTRVSPVDTATYFCAHRRGLFGVRGPVNAMDVWGQGITVTISS
VL: B1 VL
B6: wt 2F5 antibody (antibody, V domains shown)
VH: RITLKESGPPLVKPTQTLTLTCSFSGFSLSDFGVGVGWIRQPPGKALEWLAIIYSDDDKRYSPSLNTRLTITKDTSKNQVVLVMTRVSPVDTATYFCAHRRGPTTLFGVPIARGPVNAMDVWGQGITVTISS
VL: B1 VL
notes: also called 2F5 Mab; Mab 2F5

Key:
wt MPER peptide [1] = biological target: T1, wt MPER peptide (HIV-1, strain  (synthetic …)); test: cell-based or functional assay
wt MPER peptide [2] = biological target: T1, wt MPER peptide; test: BLI; Octet Red; Mabs captured on anti-human IgG Fc biosensors (10 µg/mL), peptides or ES2 as analyte in solution, two-fold dilutions 500 nM to 7.81 nM, PBS pH 7.4, 0.2% Tween 20, 60 s association and 60 s dissociation, no lipid; Langmuir 1:1 fit; also used for the alanine-substituted MPER peptides; conditions: both partners purified
linked peptide [3] = biological target: T2, linked peptide (HIV-1, strain  (synthetic …)); test: as above; conditions: both partners purified
T2 construct: source: synthetic peptide (Genscript)

wt MPER peptide [4] = biological target: T1, wt MPER peptide; test: BLI; conditions: both partners purified
linked peptide [5] = biological target: T2, linked peptide; test: BLI; conditions: both partners purified

Binder | IC50 of neutralisation of JR-CSF Env-pseudotyped HIV-1, single-cycle infectivity assay on TZM-bl cells (wt MPER peptide [1]) | IC50 of neutralisation of JR-FL Env-pseudotyped HIV-1, single-cycle infectivity assay on TZM-bl cells (wt MPER peptide [1]) | Kd (wt MPER peptide [2]) | koff (wt MPER peptide [2]) | kon (wt MPER peptide [2]) | Kd (linked peptide [3]) | koff (linked peptide [3]) | kon (linked peptide [3]) | Kd (wt MPER peptide [4]) | koff (wt MPER peptide [4]) | kon (wt MPER peptide [4]) | Kd (linked peptide [5]) | koff (linked peptide [5]) | kon (linked peptide [5])
B1 | 98 µg/mL | 111 µg/mL | 90.2 nM | 0.0051 s⁻¹ | 50000 M⁻¹ s⁻¹ | 55.8 nM | 0.0085 s⁻¹ | 150000 M⁻¹ s⁻¹ |  |  |  |  |  | 
B2 |  |  | 382 nM | 0.0081 s⁻¹ | 20000 M⁻¹ s⁻¹ | 96.8 nM | 0.0105 s⁻¹ | 100000 M⁻¹ s⁻¹ |  |  |  |  |  | 
B3 |  |  | 463 nM | 0.0087 s⁻¹ | 10000 M⁻¹ s⁻¹ | 26.9 nM | 0.0035 s⁻¹ | 130000 M⁻¹ s⁻¹ |  |  |  |  |  | 
B4 |  |  | 239 nM | 0.0101 s⁻¹ | 40000 M⁻¹ s⁻¹ | 78.6 nM | 0.0104 s⁻¹ | 130000 M⁻¹ s⁻¹ |  |  |  |  |  | 
B5 |  |  | 390 nM | 0.0189 s⁻¹ | 40000 M⁻¹ s⁻¹ | 125 nM | 0.0237 s⁻¹ | 180000 M⁻¹ s⁻¹ |  |  |  |  |  | 
B6 |  |  |  |  |  |  |  |  | 3.1 nM | 0.0007 s⁻¹ | 230000 M⁻¹ s⁻¹ | 2.2 nM | 0.0007 s⁻¹ | 360000 M⁻¹ s⁻¹
